One block for each binder: values may come before it.
Legend:
[1] = target: T1, Construct 7 (NaPi2b del 317-326) (human, UniProt O95436 1-690); test: flow cytometry, HEK293-6e cells transfected with Construct 7
T1 construct: Deletion construct on HEK293-6e cells; also called CL_#29921
T1 sequence: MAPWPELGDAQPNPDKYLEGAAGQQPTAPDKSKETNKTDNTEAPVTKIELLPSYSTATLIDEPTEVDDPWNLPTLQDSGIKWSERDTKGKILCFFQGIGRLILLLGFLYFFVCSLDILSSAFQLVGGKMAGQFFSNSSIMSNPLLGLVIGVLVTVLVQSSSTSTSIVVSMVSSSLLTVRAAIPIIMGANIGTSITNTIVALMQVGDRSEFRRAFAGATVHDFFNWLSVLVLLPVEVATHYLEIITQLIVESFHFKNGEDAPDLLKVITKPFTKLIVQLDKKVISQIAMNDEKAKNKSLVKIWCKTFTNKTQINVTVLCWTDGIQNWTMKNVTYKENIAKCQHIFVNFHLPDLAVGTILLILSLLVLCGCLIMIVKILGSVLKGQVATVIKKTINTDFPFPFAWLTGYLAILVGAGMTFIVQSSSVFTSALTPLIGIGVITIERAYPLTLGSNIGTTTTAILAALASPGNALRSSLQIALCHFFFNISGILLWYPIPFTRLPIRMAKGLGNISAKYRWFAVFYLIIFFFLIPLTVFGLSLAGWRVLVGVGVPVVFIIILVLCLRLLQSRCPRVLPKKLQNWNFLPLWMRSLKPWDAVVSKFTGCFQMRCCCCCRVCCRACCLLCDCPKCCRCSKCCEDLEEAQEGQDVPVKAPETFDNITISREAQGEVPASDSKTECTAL
Protocol: Following transfection, cells were seeded at 50,000 cells/well in conical-bottom 96-well plates and treated with a serial dilution of test antibody for 24 hours at 4° C. to prevent internalization. Cells were treated with final concentrations of all humanized antibodies of 200, 20, or 2 nM. Cells were treated with final concentrations of the reference anti-NaPi2a rabbit antibody of 50, 5, or 0.5 nM. […] Following incubation and washing, fluorescence was detected by flow cytometry on a BD LSRFortessa™ Cell Analyzer (BD Biosciences, Franklin Lake, NJ) with 1,000 minimum events collected per well. […] Background-subtracted AF647 Mean Fluorescence Intensity (MFI) values were calculated by subtracting the average MFI of three technical replicates of unstained (no primary antibody) cells.

mouse NaPi2b = target: T2, mouse NaPi2b (mouse, UniProt Q9DBP0 1-697); test: flow cytometry, HEK293-6e cells transfected with mouse NaPi2b; apparent Kd above the highest concentration tested
T2 construct: also called Ms NaPi2b; CL #13476
T2 sequence: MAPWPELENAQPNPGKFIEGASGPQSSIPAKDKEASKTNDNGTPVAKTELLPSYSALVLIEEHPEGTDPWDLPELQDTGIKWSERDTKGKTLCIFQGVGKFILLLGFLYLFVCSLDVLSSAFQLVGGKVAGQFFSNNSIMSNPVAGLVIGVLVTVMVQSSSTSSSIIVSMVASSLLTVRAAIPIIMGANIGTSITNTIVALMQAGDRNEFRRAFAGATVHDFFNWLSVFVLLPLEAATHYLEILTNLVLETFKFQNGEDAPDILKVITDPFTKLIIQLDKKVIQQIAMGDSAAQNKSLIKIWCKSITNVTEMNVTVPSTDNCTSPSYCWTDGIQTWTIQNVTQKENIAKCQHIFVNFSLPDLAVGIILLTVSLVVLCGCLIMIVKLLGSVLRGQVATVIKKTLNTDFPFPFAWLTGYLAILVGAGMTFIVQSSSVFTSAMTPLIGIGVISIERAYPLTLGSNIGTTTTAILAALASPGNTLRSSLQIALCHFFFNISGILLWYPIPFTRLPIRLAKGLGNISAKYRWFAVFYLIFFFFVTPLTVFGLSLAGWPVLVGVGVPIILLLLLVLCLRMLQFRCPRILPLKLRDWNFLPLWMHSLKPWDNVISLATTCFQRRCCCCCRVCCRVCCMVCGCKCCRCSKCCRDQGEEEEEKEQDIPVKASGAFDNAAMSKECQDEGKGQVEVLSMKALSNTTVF

B1: v18993 (lifastuzumab), reference anti-NaPi2b antibody (antibody, human IgG1, kappa)
heavy 1: GEVQLVESGGGLVQPGGSLRLSCAASGFSFSDFAMSWVRQAPGKGLEWVATIGRVAFHTYYPDSMKGRFTISRDNSKNTLYLQMNSLRAEDTAVYYCARHRGFDVGHFDFWGQGTLVTVSSASTKGPSVFPLAPSSKSTSGGTAALGCLVKDYFPEPVTVSWNSGALTSGVHTFPAVLQSSGLYSLSSVVTVPSSSLGTQTYICNVNHKPSNTKVDKKVEPKSCDKTHTCPPCPAPELLGGPSVFLFPPKPKDTLMISRTPEVTCVVVDVSHEDPEVKFNWYVDGVEVHNAKTKPREEQYNSTYRVVSVLTVLHQDWLNGKEYKCKVSNKALPAPIEKTISKAKGQPREPQVYVYPPSRDELTKNQVSLTCLVKGFYPSDIAVEWESNGQPENNYKTTPPVLDSDGSFALVSKLTVDKSRWQQGNVFSCSVMHEALHNHYTQKSLSLSPG
heavy 2: not shown
light: GDIQMTQSPSSLSASVGDRVTITCRSSETLVHSSGNTYLEWYQQKPGKAPKLLIYRVSNRFSGVPSRFSGSGSGTDFTLTISSLQPEDFATYYCFQGSFNPLTFGQGTKVEIKRTVAAPSVFIFPPSDEQLKSGTASVVCLLNNFYPREAKVQWKVDNALQSGNSQESVTEQDSKDSTYSLSSTLTLSKADYEKHKVYACEVTHQGLSSPVTKSFNRGEC
binding result [1]: no binding (tested: 200 nM)

Kd (mouse NaPi2b): > 200 nM
B2: v18992 (MX35), reference anti-NaPi2b antibody (antibody, human IgG1, kappa)
heavy 1: GQVQLVQSGAEVVKPGASVKMSCKASGYTFTGYNIHWVKQAPGQGLEWIGAIYPGNGDTSYKQKFRGRATLTADTSTSTVYMELSSLRSEDSAVYYCARGETARATFAYWGQGTLVTVSSASTKGPSVFPLAPSSKSTSGGTAALGCLVKDYFPEPVTVSWNSGALTSGVHTFPAVLQSSGLYSLSSVVTVPSSSLGTQTYICNVNHKPSNTKVDKKVEPKSCDKTHTCPPCPAPELLGGPSVFLFPPKPKDTLMISRTPEVTCVVVDVSHEDPEVKFNWYVDGVEVHNAKTKPREEQYNSTYRVVSVLTVLHQDWLNGKEYKCKVSNKALPAPIEKTISKAKGQPREPQVYVYPPSRDELTKNQVSLTCLVKGFYPSDIAVEWESNGQPENNYKTTPPVLDSDGSFALVSKLTVDKSRWQQGNVFSCSVMHEALHNHYTQKSLSLSPG
heavy 2: not shown
light: GDIQMTQSPSSLSASVGDRVTITCSASQDIGNFLNWYQQKPGKTVKVLIYYTSSLYSGVPSRFSGSGSGTDYTLTISSLQPEDFATYYCQQYSKLPLTFGQGTKLELKRTVAAPSVFIFPPSDEQLKSGTASVVCLLNNFYPREAKVQWKVDNALQSGNSQESVTEQDSKDSTYSLSSTLTLSKADYEKHKVYACEVTHQGLSSPVTKSFNRGEC

Source: patent publication US20260232827A1 (Zymeworks, published 2026)
